First the molecules themselves.
B1: Ribonuclease HII, O74035 (parent)
chain: MKIAGIDEAGRGPVIGPMVIAAVVVDENSLPKLEELKVRDSKKLTPKRREKLFNEILGVLDDYVILELPPDVIGSREGTLNEFEVENFAKALNSLKVKPDVIYADAADVDEERFARELGERLNFEAEVVAKHKADDIFPVVSAASILAKVTRDRAVEKLKEEYGEIGSGYPSDPRTRAFLENYYREHGEFPPIVRKGWKTLKKIAEKVESEKKAEERQATLDRYFRKV

In this data set the parent is B1. The following applies: Thermococcus kodakarensis (strain ATCC BAA-918 / JCM 12380 / KOD1), pH 9, CD, reversible: Yes, structure 1IO2, whole UniProt chain shown; for Tm / change of melting temperature, mutant - wild type (higher = more stable): Thermal, Gly-NaOH 20 mM; for ddG of mutation (higher = less stable) / denaturant m value / denaturant midpoint (higher = more stable) / unfolding free energy: 50 °C, GdnHCl, Tris-HCl 20 mM.

By Tm is commonly meant the temperature at which the thermal transition is half complete.

Regarding I6A, the Tm was found to be 79.3 °C and the “change of melting temperature, mutant - wild type (higher = more stable)” value (from here on “change of melting temperature, mutant”) was -5.2 °C.
In the case of L147A, the “ddG of mutation (higher = less stable)” value stood at 2.61 kcal/mol, the denaturant m value worked out at 6.19 kcal/mol/M, the “denaturant midpoint (higher = more stable)” value (“denaturant midpoint” below) stood at 1.38 M and the unfolding free energy was determined as 8.53 kcal/mol.
For L33A, the Tm was 72.6 °C and the “change of melting temperature, mutant” value is -11.9 °C.
Regarding L92A, the “ddG of mutation (higher = less stable)” value is 2.87 kcal/mol, the denaturant m value turned out to be 6 kcal/mol/M, the “denaturant midpoint” value was determined as 1.33 M and the unfolding free energy came to 8.01 kcal/mol. The Tm worked out at 78.9 °C and the “change of melting temperature, mutant” value was -5.6 °C.
Consider L118A, for which the “ddG of mutation (higher = less stable)” value came out at 5.26 kcal/mol, the denaturant m value was found to be 5.9 kcal/mol/M, the “denaturant midpoint” value worked out at 0.9 M and the unfolding free energy was found to be 5.31 kcal/mol. The Tm was 70.8 °C and the “change of melting temperature, mutant” value was -13.7 °C.
Regarding I15A, the “ddG of mutation (higher = less stable)” value was 2.13 kcal/mol, the denaturant m value amounted to 4.3 kcal/mol/M, the “denaturant midpoint” value amounted to 1.47 M and the unfolding free energy was determined as 6.31 kcal/mol.
On to I56A, for which the “ddG of mutation (higher = less stable)” value came to 3.97 kcal/mol, the denaturant m value came out at 5.35 kcal/mol/M, the “denaturant midpoint” value stood at 1.13 M and the unfolding free energy is 6.05 kcal/mol. The Tm was determined as 75.8 °C and the “change of melting temperature, mutant” value was -8.7 °C.
Consider I102A, for which the “ddG of mutation (higher = less stable)” value turned out to be 4.04 kcal/mol, the denaturant m value amounted to 5.9 kcal/mol/M, the “denaturant midpoint” value turned out to be 1.12 M and the unfolding free energy was 6.62 kcal/mol. Besides, the midpoint of thermal melting (Tm) stood at 73.8 °C and the “change of melting temperature, mutant” value was -10.7 °C.
As to I20A, the “ddG of mutation (higher = less stable)” value was 4.42 kcal/mol, the denaturant m value is 5.74 kcal/mol/M, the “denaturant midpoint” value stood at 1.05 M and the unfolding free energy stood at 6.05 kcal/mol. The Tm is 76.1 °C and the “change of melting temperature, mutant” value is -8.4 °C.

For the origin of these results see FireProtDB (doi:10.1016/j.jmb.2008.02.039).
